Source: patent publication US20250012721A1, “FLUORESCENCE DETECTION KIT FOR ACTIVATED COMPLEMENT C1s, DETECTION METHOD USING SAME, AND USE THEREOF” (JIANGSU UNIVERSITY, priority 2022, published 2025)

Biological target: T1, activated C1s (Homo sapiens, UniProt P09871)
T1 construct: purchased Complement Technology
T1 sequence (P09871 16-437 limits assumed): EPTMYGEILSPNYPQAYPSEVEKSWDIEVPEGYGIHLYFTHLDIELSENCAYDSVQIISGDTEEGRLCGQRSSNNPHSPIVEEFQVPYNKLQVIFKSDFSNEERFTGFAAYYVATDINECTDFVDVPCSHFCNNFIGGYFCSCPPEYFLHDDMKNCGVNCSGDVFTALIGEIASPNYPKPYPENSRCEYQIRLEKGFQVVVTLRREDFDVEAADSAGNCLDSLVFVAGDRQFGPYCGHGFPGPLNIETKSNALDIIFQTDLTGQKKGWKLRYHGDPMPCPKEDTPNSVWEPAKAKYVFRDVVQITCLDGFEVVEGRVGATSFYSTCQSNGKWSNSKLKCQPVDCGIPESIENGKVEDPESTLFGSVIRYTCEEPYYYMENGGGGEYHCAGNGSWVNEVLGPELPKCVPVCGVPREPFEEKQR
T1 sequence (P09871 438-688 limits assumed): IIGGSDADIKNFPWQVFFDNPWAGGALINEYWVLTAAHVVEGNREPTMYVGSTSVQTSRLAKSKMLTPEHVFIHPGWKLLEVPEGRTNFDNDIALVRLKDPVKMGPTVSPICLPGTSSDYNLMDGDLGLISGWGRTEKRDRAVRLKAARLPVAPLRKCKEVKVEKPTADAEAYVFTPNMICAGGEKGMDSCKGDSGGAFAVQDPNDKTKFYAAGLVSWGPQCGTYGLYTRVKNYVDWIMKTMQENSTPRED
Assay: Anti-interference experiment of fluorescence detection method for activated C1s
Assay type: biochemical
Details: for measured activated C1s enzymatic activity: n = 4
Protocol: • 1. Preparation of a buffer: 1) Binding Buffer: 0.1 M morpholinoethanesulfonic acid (MES, pH=5.0); • 2) Washing Buffer: TBS containing 0.05% Tween 20; • 3) Blocking Buffer: containing 0.05 M Tris, 1.0% BSA, and 0.05% Tween 20; • 4) Desired Buffer: Tris buffer containing 0.05% Tween 20 and BSA; and • 5) Tris Buffer: 0.05 M Tris, 0.15 M NaCl, and 0.2% (w/v) polyethylene glycol 8000. • 2. Preparation of immunomagnetic beads (C1s recombinant antibody-coupled magnetic beads) • (1) 10 mg of magnetic beads (Merck carboxyl magnetic beads, with a particle size of 1 μm) were washed 3 times with 1 mL of Binding Buffer, and vortexed to mix evenly. • (2) 20 μg of the C1s recombinant antibody obtained in Example 1 was added into every 1 mg of the magnetic beads, mixed well, and vortexed at a room temperature (25° C.) for 15 min. • (3) 50 μg of a coupling agent was added into every 1 mg of the magnetic beads, mixed well, and vortexed at a room temperature for 1 h. • (4) 1 mL of Binding Buffer was added and vortexed at a room temperature for 3 h. • (5) The magnetic beads were washed 4 times with 0.5 mL of Washing Buffer. • (6) The magnetic beads were resuspended with 1 mL of Desired Buffer to obtain C1s recombinant antibody-coupled magnetic beads with a concentration of 5 mg/mL, and stored at 4° C. until later use. • 3. Detection of the enzymatic activity of activated C1s • (1) 60 μL of the C1s recombinant antibody-coupled magnetic beads were stirred evenly, subjected to magnetic suction to remove a supernatant, added with 200 μL of PBS to mix well, subjected to the magnetic suction to remove a supernatant, and washed repeatedly 2 times. • (2) 10 μL of a sample to be tested or activated C1s standards with different concentrations were diluted to 100 μL with PBS, and mixed vertically with the C1s recombinant antibody-coupled magnetic beads at a room temperature for 10 min. The magnetic suction was performed to discard a supernatant. According to the enzymatic activity of the C1s standard determined in Example 4, the enzymatic activity conversion of the C1s standards with different concentrations is shown in Table 2.
• (3) The magnetic beads were repeatedly washed 3 times with 100 μL of PBS. • (4) The magnetic beads were resuspended with 90 μL of Tris buffer. • (5) 10 μL of substrate peptide 3 was added at a concentration of 1 μg/mL. • (6) The detection was performed with a microplate reader at 360/40 excitation light wave and 460/40 emission light wave, with a best reaction time of 1 h as a detection point, and the fluorescence signals were measured and recorded. The straight line fitting was performed by taking a C1s enzymatic activity as an abscissa and a fluorescence signal as an ordinate with a double logarithmic Log-Log mathematical model and using a least square method to plot a standard curve.
The possibility that bilirubin, chyle, and hemoglobin in clinical samples cause interference in the experiment was taken into account. Referring to the interference check A kit, high-, medium-, and low-concentration standards were added with different concentrations of bilirubin (with final concentrations of 0 mg/mL, 0.06 mg/mL, 0.14 mg/mL, and 0.20 mg/mL, respectively), chyle (with final concentrations of 0 FTU, 600 FTU, 1,400 FTU, and 2,000 FTU, respectively), and a hemoglobin solution (with final concentrations of 0 mg/mL, 1.5 mg/mL, 3.5 mg/mL, and 5 mg/mL, respectively). The measured high, medium and low average concentrations containing different interfering substances were subtracted from the corresponding average concentrations without interfering substances, and a difference and a percentage of the difference in an average concentration of a blank control without interfering substances were calculated.

Question: With “Hemoglobin: hemoglobin solution, interfering substance from interference check A kit” as the substance, how does the “measured activated C1s enzymatic activity” value (High value standard, hemoglobin 1.5 mg/mL) read?
Answer: 60.57 ± 3.66 pmol/min/µg

Question: And the “measured activated C1s enzymatic activity” value (High value standard, hemoglobin 3.5 mg/mL)?
Answer: 56.23 ± 4.58 pmol/min/µg

Question: What about the “measured activated C1s enzymatic activity” value (High value standard, hemoglobin 5 mg/mL) of the same substance?
Answer: 59.50 ± 5.13 pmol/min/µg

Question: And the “measured activated C1s enzymatic activity” value (Low value standard, hemoglobin 1.5 mg/mL)?
Answer: 6.00 ± 0.59 pmol/min/µg

Question: And the “measured activated C1s enzymatic activity” value (Low value standard, hemoglobin 3.5 mg/mL)?
Answer: 6.2 ± 0.56 pmol/min/µg

Question: What about the “measured activated C1s enzymatic activity” value (Low value standard, hemoglobin 5 mg/mL) of the same substance?
Answer: 6.37 ± 0.51 pmol/min/µg

Question: And the “measured activated C1s enzymatic activity” value (Medium value standard, hemoglobin 1.5 mg/mL)?
Answer: 29.47 ± 1.15 pmol/min/µg

Question: What about the “measured activated C1s enzymatic activity” value (Medium value standard, hemoglobin 3.5 mg/mL) of the same substance?
Answer: 28.16 ± 2.68 pmol/min/µg

Question: And the “measured activated C1s enzymatic activity” value (Medium value standard, hemoglobin 5 mg/mL)?
Answer: 28.23 ± 1.45 pmol/min/µg

Question: And the “interference with the detection method” value (hemoglobin 5 mg/mL)?
Answer: not interfered
